Measurements taken from patent US20240116985A1, “STAPLED PEPTIDES AND METHODS THEREOF” (priority 2020, published 2024).
Starred links: 1 amine or outer side, 2 acyl side, 3 side chain; linkers in the order of their positions; H or OH if unused. Positions of bridges follow the written chain, without caps; N, C: chain ends. Non-standard residues stand in square brackets, D forms with d. Primed or numbered codes have the meaning given here. PyrS2″ = (S)-3-amino-1-((pent-4-en-1-yloxy)carbonyl)pyrrolidine-3-carboxylic acid (stapling residue), C=CCCCOC(=O)N1CC[C@@](N[*:1])(C(=O)[*:2])C1; B5(16) = 2-amino-2-(pent-4-en-1-yl)hept-6-enoic acid = 2,2-bis(4-pentenyl)glycine (stitching residue), C=CCCCC(CCCC=C)(N[*:1])C(=O)[*:2]; B5(4) = 2,2-bis(4-pentenyl)glycine = 2-amino-2-(pent-4-en-1-yl)hept-6-enoic acid (stitching residue), C=CCCCC(CCCC=C)(N[*:1])C(=O)[*:2]; B5(5) = 2,2-bis(4-pentenyl)glycine, 2-amino-2-(pent-4-en-1-yl)hept-6-enoic acid (stitching residue), C=CCCCC(CCCC=C)(N[*:1])C(=O)[*:2]; PyrS2 = (S)-3-amino-1-((pent-4-en-1-yloxy)carbonyl)pyrrolidine-3-carboxylic acid, C=CCCCOC(=O)N1CC[C@@](N[*:1])(C(=O)[*:2])C1; SeN = (S)-5-(((allyloxy)carbonyl)(methyl)amino)-2-amino-2-methylpentanoic acid, C=CCOC(=O)N(C)CCC[C@](C)(N[*:1])C(=O)[*:2]; B5(12) = 2-amino-2-(pent-4-en-1-yl)hept-6-enoic acid (two olefin side chains), C=CCCCC(CCCC=C)(N[*:1])C(=O)[*:2]; B5(13) = 2-amino-2-(pent-4-en-1-yl)hept-6-enoic acid (two alkene chains), C=CCCCC(CCCC=C)(N[*:1])C(=O)[*:2]; B5(3) = 2,2-bis(4-pentenyl)glycine (stitching residue), C=CCCCC(CCCC=C)(N[*:1])C(=O)[*:2]; B5 = 2-amino-2-(pent-4-en-1-yl)hept-6-enoic acid, C=CCCCC(CCCC=C)(N[*:1])C(=O)[*:2]; Ala(1H-tetrazol-5-yl) = N[C@@H](Cc1nnn[nH]1)C(=O)O; Trp(6-Cl) = N[C@@H](Cc1c[nH]c2cc(Cl)ccc12)C(=O)O; Phe(2-Cl) = N[C@@H](Cc1ccccc1Cl)C(=O)O; Phe(3-F) = N[C@@H](Cc1cccc(F)c1)C(=O)O; 1Nal = N[C@@H](Cc1cccc2ccccc12)C(=O)O; 2Nal = N[C@@H](Cc1ccc2ccccc2c1)C(=O)O; Bta = N[C@@H](Cc1csc2ccccc12)C(=O)O; αAllylPro = C=CC[C@@]1(C(=O)O)CCCN1; tBuAla = CC(C)(C)C[C@H](N)C(=O)O; 2Thi = N[C@@H](Cc1cccs1)C(=O)O; 3Thi = N[C@@H](Cc1ccsc1)C(=O)O; Cit = NC(=O)NCCC[C@H](N)C(=O)O; S8 = C=CCCCCCC[C@](C)(N)C(=O)O; hSer = N[C@@H](CCO)C(=O)O

B1: I-682 (peptide)
peptide: Ac-[αAllylPro]D[tBuAla][B5(4)]DEAAFN[S8][3Thi][Bta]Q-NH2
modifications: staple 1-4, 4-11; not fully specified
B2: I-794 (peptide)
peptide: Ac-[αAllylPro]D[tBuAla][B5]DDAAFN[PyrS2][1Nal][Bta]H-NH2
modifications: staple 1-4, 4-11
B3: I-795 (peptide)
peptide: Ac-[αAllylPro]D[tBuAla][B5]DDAAFN[PyrS2][2Nal][Bta]H-NH2
modifications: staple 1-4, 4-11
B4: I-798 (peptide)
peptide: Ac-[αAllylPro]D[tBuAla][B5]DDAAFN[PyrS2][3Thi][Trp(6-Cl)]H-NH2
modifications: staple 1-4, 4-11
B5: I-802 (peptide)
peptide: Ac-[αAllylPro]D[tBuAla][B5]DDAAFL[PyrS2][3Thi][Bta]H-NH2
modifications: staple 1-4, 4-11
B6: I-804 (peptide)
peptide: Ac-[αAllylPro]D[tBuAla][B5(3)]DDAAF[hSer][PyrS2″][3Thi][Bta]H-NH2
modifications: staple 1-4, 4-11
B7: I-805 (peptide)
peptide: Ac-[αAllylPro]D[tBuAla][B5(3)]DDAAF[Cit][PyrS2″][3Thi][Bta]Q-NH2
modifications: staple 1-4, 4-11
B8: I-806 (peptide)
peptide: Ac-[αAllylPro]D[tBuAla][B5(3)]DDAAF[Cit][PyrS2″][3Thi][Bta]H-NH2
modifications: staple 1-4, 4-11
B9: I-1019: Ac-PL3-Asp-Npg-B5-Asp-Asp-Ala-Ala-Phe-Ser-PyrS2-2C1F-BztA-Ser-NH2 (peptide)
peptide: Ac-[αAllylPro]D[tBuAla][B5(16)]DDAAFS[PyrS2″][Phe(2-Cl)][Bta]S-NH2
modifications: staple 1-4, 4-11; not fully specified; printed as Ac-PL3-Asp-Npg-B5-Asp-Asp-Ala-Ala-Phe-Ser-PyrS2-2C1F-BztA-Ser-NH2
B10: I-1020 (peptide)
peptide: Ac-[αAllylPro]D[tBuAla][B5(5)]DNAAFS[PyrS2″][Phe(2-Cl)][Bta]S-NH2
modifications: staple 1-4, 4-11
B11: I-773 (peptide)
peptide: Ac-[αAllylPro]D[tBuAla][B5(13)]DDAAFN[SeN][3Thi][Bta]H-NH2
modifications: staple 1-4, 4-11
B12: I-774 (peptide)
peptide: Ac-[αAllylPro]D[tBuAla][B5(13)]DDAAFN[SeN][3Thi][Bta]H-NH2
modifications: staple 1-4, 4-11
B13: I-843 (peptide)
peptide: Ac-[αAllylPro]D[tBuAla][B5(4)]DYAAFN[PyrS2][3Thi][Bta]H-NH2
modifications: staple 1-4, 4-11
B14: I-845 (peptide)
peptide: Ac-[αAllylPro]D[tBuAla][B5(4)]DTAAFN[PyrS2][3Thi][Bta]H-NH2
modifications: staple 1-4, 4-11
B15: I-855 (peptide)
peptide: Ac-[αAllylPro]D[tBuAla][B5(12)]DNAAFF[PyrS2][3Thi][Bta]Q-NH2
modifications: staple 1-4, 4-11
B16: I-856 (peptide)
peptide: Ac-[αAllylPro]D[tBuAla][B5(12)]DNAAFL[PyrS2][3Thi][Bta]Q-NH2
modifications: staple 1-4, 4-11
B17: I-412 (peptide)
peptide: Ac-[αAllylPro]DI[B5(3)]DEAA[2Thi]Q[S8][Phe(3-F)][Bta]Q-NH2
modifications: staple 1-4, 4-11
B18: I-413 (peptide)
peptide: Ac-[αAllylPro]DA[B5(3)]D[Ala(1H-tetrazol-5-yl)]AAFQ[S8]F[Bta]Q-NH2
modifications: staple 1-4, 4-11
B19: I-416 (peptide)
peptide: Ac-[αAllylPro][Ala(1H-tetrazol-5-yl)]A[B5(3)]DEAAFQ[S8]F[Bta]Q-NH2
modifications: staple 1-4, 4-11; also: staple isomer composition, earlier eluting HPLC peak
B20: I-417 (peptide)
peptide: Ac-[αAllylPro][Ala(1H-tetrazol-5-yl)]A[B5(3)]DEAAFQ[S8]F[Bta]Q-NH2
modifications: staple 1-4, 4-11; also: staple isomer composition, later eluting HPLC peak
B21: I-426 (peptide)
peptide: Ac-[αAllylPro]DA[B5(3)]DEAAFQ[S8][3Thi][Bta]Q-NH2
modifications: staple 1-4, 4-11; also: staple isomer composition, earlier eluting HPLC peak
B22: I-427 (peptide)
peptide: Ac-[αAllylPro]DA[B5(4)]DEAAFQ[S8][3Thi][Bta]Q-NH2
modifications: staple 1-4, 4-11; also: staple isomer composition, later-eluting HPLC peak
B23: I-428 (peptide)
peptide: Ac-[αAllylPro]DA[B5(4)]DEAAFQ[S8][2Thi][Bta]Q-NH2
modifications: staple 1-4, 4-11
B24: I-429 (peptide)
peptide: Ac-[αAllylPro]DA[B5(4)]DEAA[3Thi]Q[S8][Phe(3-F)][Bta]Q-NH2
modifications: staple 1-4, 4-11
B25: I-430 (peptide)
peptide: Ac-[αAllylPro]DA[B5(4)]DEAA[3Thi]Q[S8][Phe(3-F)][Bta]H-NH2
modifications: staple 1-4, 4-11
B26: I-431 (peptide)
peptide: Ac-[αAllylPro]DA[B5(4)]DEAA[3Thi]Q[S8][Phe(3-F)][Bta]-NH2
modifications: staple 1-4, 4-11
B27: I-432 (peptide)
peptide: Ac-[αAllylPro]DA[B5(4)]DEAAFN[S8]F[Bta]-NH2
modifications: staple 1-4, 4-11

These binders were tested against full-length beta-Catenin (Uniprot ID P35222) (Homo sapiens (Human)) (UniProt P35222) (assay: fluorescence polarization competition; full-length beta-catenin; competitor displaced: 5FAM-TCF4 10-53).
Target sequence in this assay (P35222 2-781 limits assumed): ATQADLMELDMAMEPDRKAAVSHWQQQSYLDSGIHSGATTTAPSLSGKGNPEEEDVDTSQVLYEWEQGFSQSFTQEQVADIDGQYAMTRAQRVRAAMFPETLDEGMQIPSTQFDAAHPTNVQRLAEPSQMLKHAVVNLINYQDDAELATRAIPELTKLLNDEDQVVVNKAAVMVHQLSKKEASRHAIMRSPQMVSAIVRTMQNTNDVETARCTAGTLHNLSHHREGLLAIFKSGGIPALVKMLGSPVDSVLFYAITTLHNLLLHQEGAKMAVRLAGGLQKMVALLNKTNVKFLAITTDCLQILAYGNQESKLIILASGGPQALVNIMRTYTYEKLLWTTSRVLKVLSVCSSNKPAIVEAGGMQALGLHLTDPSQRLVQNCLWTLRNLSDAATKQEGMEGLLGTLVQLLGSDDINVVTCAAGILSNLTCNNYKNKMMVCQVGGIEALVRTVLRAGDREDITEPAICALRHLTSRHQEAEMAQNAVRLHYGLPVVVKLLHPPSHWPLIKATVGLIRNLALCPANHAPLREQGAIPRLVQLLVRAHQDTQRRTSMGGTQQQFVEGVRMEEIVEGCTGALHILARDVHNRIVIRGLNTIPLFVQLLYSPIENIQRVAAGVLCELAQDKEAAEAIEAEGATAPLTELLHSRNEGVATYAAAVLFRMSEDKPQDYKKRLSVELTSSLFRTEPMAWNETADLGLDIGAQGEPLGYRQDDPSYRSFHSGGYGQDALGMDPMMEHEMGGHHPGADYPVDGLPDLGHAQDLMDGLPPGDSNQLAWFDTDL

Binder	IC50
B1	41 nM

What follows are binders tested against full-length beta-Catenin (Uniprot ID P35222) (Homo sapiens (Human)) (UniProt P35222) (assay: fluorescence polarization competition; 10 nM full-length beta-catenin with 10 nM 5FAM-TCF4(10-53) probe as competitor).
Target sequence in this assay (P35222 2-781 limits assumed): as above

Binder	IC50
B2	19 nM
B3	176 nM
B4	106 nM
B5	6 nM
B6	5 nM
B7	5 nM
B8	5 nM
B9	5 nM

Each binder was assayed against full-length beta-Catenin (Uniprot ID P35222) (Homo sapiens (Human)) (UniProt P35222) (assay: fluorescence polarization competition; full-length beta-catenin, competitor 5FAM-TCF4 10-53).
Target sequence in this assay (P35222 whole entry): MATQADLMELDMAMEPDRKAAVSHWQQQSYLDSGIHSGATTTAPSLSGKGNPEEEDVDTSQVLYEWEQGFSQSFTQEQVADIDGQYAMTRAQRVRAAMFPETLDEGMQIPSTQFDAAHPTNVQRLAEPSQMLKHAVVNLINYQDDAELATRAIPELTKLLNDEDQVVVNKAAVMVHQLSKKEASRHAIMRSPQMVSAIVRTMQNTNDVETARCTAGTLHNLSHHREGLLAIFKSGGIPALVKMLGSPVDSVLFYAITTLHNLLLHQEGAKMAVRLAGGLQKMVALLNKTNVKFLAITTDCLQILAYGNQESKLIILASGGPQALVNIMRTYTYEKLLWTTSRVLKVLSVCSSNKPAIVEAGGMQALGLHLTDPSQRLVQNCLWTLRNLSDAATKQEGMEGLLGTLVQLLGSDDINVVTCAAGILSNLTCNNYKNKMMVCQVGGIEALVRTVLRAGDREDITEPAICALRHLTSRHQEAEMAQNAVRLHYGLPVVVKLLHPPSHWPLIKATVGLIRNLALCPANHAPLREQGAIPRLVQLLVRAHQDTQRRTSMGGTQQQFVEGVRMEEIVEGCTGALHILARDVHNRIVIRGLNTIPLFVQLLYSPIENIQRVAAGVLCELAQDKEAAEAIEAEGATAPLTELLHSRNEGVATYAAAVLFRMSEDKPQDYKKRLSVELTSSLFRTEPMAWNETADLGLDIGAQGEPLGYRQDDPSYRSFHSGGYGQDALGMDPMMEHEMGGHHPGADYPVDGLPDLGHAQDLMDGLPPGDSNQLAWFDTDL

Binder	IC50
B10	52 nM

What follows are binders tested against full-length beta-Catenin (Uniprot ID P35222) (Homo sapiens (Human)) (UniProt P35222) (assay: fluorescence polarization competition; full-length beta-catenin, competitor 5FAM-TCF4(10-53) probe).
Target sequence in this assay (P35222 2-781 limits assumed): as the sequence (P35222 2-781 limits assumed) above

Binder	EC50
B11	167 nM
B12	38 nM

The binders below were run against full-length beta-Catenin (Uniprot ID P35222) (Homo sapiens (Human)) (UniProt P35222) (assay: fluorescence polarization competition: peptide titrated against 10 nM full-length beta-catenin + 10 nM 5FAM-TCF4(10-53) probe).
Target sequence in this assay (P35222 2-781 limits assumed): as above

Binder	EC50
B2	19 nM
B3	176 nM
B4	106 nM
B5	6 nM
B6	5 nM
B7	5 nM
B8	5 nM

What follows are binders tested against full-length beta-Catenin (Uniprot ID P35222) (Homo sapiens (Human)) (UniProt P35222) (assay: fluorescence polarization competition; displaces 5FAM-TCF4(10-53) from full-length beta-catenin).
Target sequence in this assay (P35222 2-781 limits assumed): as above

Binder	EC50
B10	52 nM

The binders below were run against full-length beta-Catenin (Uniprot ID P35222) (Homo sapiens (Human)) (UniProt P35222) (assay: fluorescence polarization competition; displacement of 5FAM-TCF4(10-53) from full-length beta-catenin).
Target sequence in this assay (P35222 whole entry): as the sequence (P35222 whole entry) above

Binder	IC50
B13	154 nM
B14	7 nM
B15	22 nM
B16	17 nM

These binders were tested against full-length beta-Catenin (Uniprot ID P35222) (Homo sapiens (Human)) (UniProt P35222) (assay: fluorescence polarization competition; peptide titrated against 10 nM full-length beta-catenin + 10 nM 5FAM-TCF4(10-53) probe).
Target sequence in this assay (P35222 whole entry): as above

Binder	IC50
B17	92 nM
B18	90 nM
B19	5000 nM
B20	5000 nM
B21	109 nM
B22	38.5 nM
B23	60 nM
B24	146 nM
B25	154 nM
B26	1320 nM
B27	145 nM

The binders below were run against full-length beta-Catenin (Uniprot ID P35222) (Homo sapiens (Human)) (UniProt P35222) (assay: fluorescence polarization competition; 10 nM full-length beta-catenin + 10 nM 5FAM-TCF4(10-53) probe, peptide titrated).
Target sequence in this assay (P35222 2-781 limits assumed): as the sequence (P35222 2-781 limits assumed) above

Binder	EC50
B17	92 nM
B18	90 nM
B19	5000 nM
B20	5000 nM
B21	109 nM
B22	38.5 nM
B23	60 nM
B24	146 nM
B25	154 nM
B26	1320 nM
B27	145 nM

The binders below were run against full-length beta-Catenin (Uniprot ID P35222) (Homo sapiens (Human)) (UniProt P35222) (assay: fluorescence polarization competition; 10 nM full-length beta-catenin with 10 nM 5FAM-TCF4 (residues 10-53) probe as competitor).

Binder	EC50
B13	154 nM
B14	7 nM
B15	22 nM
B16	17 nM

Each binder was assayed against full-length beta-Catenin (Uniprot ID P35222) (Homo sapiens (Human)) (UniProt P35222) (assay: fluorescence polarization competition; peptide displaces 5FAM-TCF4(10-53) from full-length beta-catenin).

Binder	IC50
B11	167 nM
B12	38 nM
